Laboratory results: patent publication US20220324998A1 (MUSC FOUNDATION FOR RESEARCH DEVELOPMENT, published 2022)

Experiments:
HRAS(Q61L) = target: T1, HRAS(Q61L) (UniProt P01112 1-189, limits assumed); experiment: co-IP (FLAG IP, Western blot) from HEK cells (FIG. 6)
T1 construct: HA-tagged, expressed in HEK cells; also called Q61L mutant; HA-tagged HRAS Q61L
Description: (§1) R15m clones were expressed as CFP-FLAG fusion proteins in HEK cells along with various HA-tagged mutants of HRAS. CFP and NS1 Monobody were used as controls. CFP-FLAG and CFP-FLAG-tagged Monobodies (Mb) were immunoprecipitated, fractionated on SDSPAGE, and probed for binding to HRAS mutants. Antibodies used in Western blots are shown to the right of each panel.
(§2) R15 or R18 Monobody was expressed as CFP-FLAG fusion proteins in HEK cells along with various HA-tagged mutants of HRAS or KRAS, immunoprecipitated, and probed for binding to RAS mutants (FIGS. 1B and 1C). Additionally, various R15-derivative (R15m #) Monobody clones were expressed as CFP-FLAG fusion proteins in HEK cells along with various HA-tagged mutants of HRAS, immunoprecipitated, and probed for binding to RAS mutants (FIG. 5). R15 and R18 clones bound predominantly to Q61L, D119N, and K16N mutants with little binding to wild type (WT) or G12V mutant. K16N purifies from bacteria in a nucleotide free state. […] R15m10 binds Q61L mutants of all three RAS isoforms in addition to binding to NRAS(G12D) mutant (FIG. 6). Further R15m10 binds common oncogenic RAS mutants (FIG. 7 and FIG. 8).

NRAS(G12D) = NRAS(G12D) (UniProt P01111 1-189, limits assumed); experiment: as above
Description: as §1, §2

NRAS(Q61L) = target: T2, NRAS(Q61L) (UniProt P01111 1-189, limits assumed); experiment: as above
T2 construct: HA-tagged, expressed in HEK cells
Description: as §1, §2

HRAS(G12V) = target: T3, HRAS(G12V) (UniProt P01112 1-189); experiment: FLAG IP of monobody from HEK cells co-transfected with HA-tagged RAS mutant (FIG. 11D)
T3 construct: also called G12V mutant
Description: FIG. 11A depicts KRAS(Q61L) co-expression with NS1 and R15. FIG. 11B depicts KRAS(G12D) co-expression with NS1 and R15. FIG. 11C depicts KRAS(G13D) co-expression with NS1 and R15. FIG. 11D depicts HRAS(G12V) co-expression with NS1 and R15. FIGS. 11E and 11F depict total expression of proteins with NS1 and R15, respectively, in whole cell lysates (WCL). HEK cells were co-transfected with the indicated Mb and HA-tagged RAS mutant. Monobodies were subsequently immunoprecipitated with FLAG antibodies to purify the associated RAS mutant protein. IPs were washed extensively with buffer containing high Mg2+ and lacking nucleotide. RAS proteins were then eluted from the immune complex with buffer containing low concentrations of SDS and deoxycholate (DOC). Eluted RAS proteins were then recovered and diluted 10-fold with buffer lacking SDS and DOC. Purified RAS proteins were then normalized to equivalent levels and incubated with GST-RAF-RBD to determine the level of active GTP-loaded RAS. As indicated, NS1 purified RAS-GTP as the purified RAS proteins robustly bound GST-RAF RBD both in the absence and presence of added GTPγS. […] However, addition of GTPγS (+GTP) to the R15m10 purified RAS proteins reconstituted binding to the RAF-RBD.
HEK cells were co-transfected with the indicated Mb and HA-tagged RAS mutant. […]

Measured: binding result

B1: FLAG-tagged CFP-R15m10 Monobody (designed binder)
chain: VSSVPTKLEVVAATPTSLLISWDASSSSVSYYRITYGETGGNSPVQEFTVPGYYSTATISGLKPGVDYTITVYAVWQGVWRYVSPISINYRT
notes: also called apo-specific monobody R15m10; not shown: CFP; FLAG tag
binds: all assays above
